The values below come from paper PMC12153270.

The series relates to MBP-ComGC (soluble globular head) (Streptococcus sanguinis 2908?). The experiment in a line: EMSA. The note with it: 2.5 mM Mg2+; 25 mM Tris-HCl pH 8, 2.5 mM MgCl2, 50 mM NaCl, room temperature 30 min, 120 ng pUC19 in 10 uL; 0.8% agarose in TAE. For orientation: Mobility shift assays separate free from complexed probe on a gel.

As to pUC19 plasmid, the binding is > 10 µM.
